Reference: article PMC2867299 (The Journal of Cell Biology, 2010)

Molecular target: T1, GST-Myo4p-L-GT (Myo4p linker and globular tail, from residue 1042) (S. cerevisiae, UniProt P32492 1042-1471)
T1 sequence: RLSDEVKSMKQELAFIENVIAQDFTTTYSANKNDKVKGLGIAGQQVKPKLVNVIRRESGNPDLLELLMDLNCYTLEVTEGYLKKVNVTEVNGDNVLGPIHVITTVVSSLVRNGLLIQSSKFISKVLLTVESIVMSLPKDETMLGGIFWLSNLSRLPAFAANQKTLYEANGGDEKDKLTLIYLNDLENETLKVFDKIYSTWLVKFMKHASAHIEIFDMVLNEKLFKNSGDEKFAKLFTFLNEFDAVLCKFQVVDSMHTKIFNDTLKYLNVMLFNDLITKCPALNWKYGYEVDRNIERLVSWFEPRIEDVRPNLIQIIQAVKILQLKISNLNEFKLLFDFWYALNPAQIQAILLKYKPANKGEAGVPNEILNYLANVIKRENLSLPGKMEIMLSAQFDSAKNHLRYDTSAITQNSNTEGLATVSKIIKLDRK
Experiment: pull-down

B1: His-She3p-N (N-terminal half of She3p, aa 1-234) (domain or fragment)
chain: MSDQDNTQTSSSKLAPHHNIFMANLESSPTKDRNTSSQNASSSRVIESLHDQIDMLTKTNLQLTTQSQNLLSKLELAQSKESKLLENLNLLKNENENLNSIFERKNKKLKELEKDYSELSNRYNEQKEKMDQLSKLAKNSSAIEQSCSEKLQNMEVNYNSLLESQNLYRDHYSDEISKLNEKIGLLELELSNQNLNYGSDTSSNSDIELNLNKFNDSVKDLKSLETEKDSKLSK
  binding result: binds
